Key:
Assay type in all cases: biochemical
[1] = test system: CN(C)c1ccc2c(c1)Oc1cc(N(C)C)ccc1C21OC(=O)c2cc(C(=O)NCC[C@H](NC(=O)[C@H](CC3CCCCC3)NC(=O)N3CCOCC3)C(=O)NCCNC(=O)c3ccc(-c4c5ccc(=O)cc-5oc5cc(O)ccc45)c(C(=O)O)c3)ccc21; test: in vitro activity assay (fluorescence, substrate cleavage) with Cath B; conditions: other: Cath B; measurement performed at pH 5.5; pH 5.5; 37.0 °C
Method: (§1) […] The substrates were solved in DMSO and added to enzyme solution with a final concentration of 50 μM.
(§2) Fluorescence was measured with an Tecan SAFIRE II spectrometer (excitation wavelength: 336 nm; emission wavelength: 490 nm; excitation band: 10.0 nm; emission band: 10.0 nm; amplification (manual): 90).

[2] = test system: CN(C)c1ccc(/N=N/c2ccc(C(=O)NCCCC[C@H](NC(=O)[C@H](CCC(=O)NCCNc3cccc4c(S(=O)(=O)O)cccc34)NC(=O)[C@H](CC3CCCCC3)NC(=O)N3CCOCC3)C(=O)O)cc2)cc1; test: as above; conditions: other: Cath B; measurement performed at pH 7.5; pH 7.5; 37.0 °C
Method: as §1, §2

[3] = test system: CN(C)c1ccc2c(c1)Oc1cc(N(C)C)ccc1C21OC(=O)c2cc(C(=O)NCC[C@H](NC(=O)[C@H](CC3CCCCC3)NC(=O)N3CCOCC3)C(=O)NCCNC(=O)c3ccc(-c4c5ccc(=O)cc-5oc5cc(O)ccc45)c(C(=O)O)c3)ccc21; test: in vitro activity assay (fluorescence, substrate cleavage) with Cath L; conditions: other: Cath L; measurement performed at pH 5.5; pH 5.5; 37.0 °C
Method: as §1, §2

[4] = test system: CN(C)c1ccc(/N=N/c2ccc(C(=O)NCCCC[C@H](NC(=O)[C@H](CCC(=O)NCCNc3cccc4c(S(=O)(=O)O)cccc34)NC(=O)[C@H](CC3CCCCC3)NC(=O)N3CCOCC3)C(=O)O)cc2)cc1; test: as above; conditions: other: Cath L; measurement performed at pH 7.5; pH 7.5; 37.0 °C
Method: as §1, §2

Sequence of Cath L (Homo sapiens) (chain, as listed by the source): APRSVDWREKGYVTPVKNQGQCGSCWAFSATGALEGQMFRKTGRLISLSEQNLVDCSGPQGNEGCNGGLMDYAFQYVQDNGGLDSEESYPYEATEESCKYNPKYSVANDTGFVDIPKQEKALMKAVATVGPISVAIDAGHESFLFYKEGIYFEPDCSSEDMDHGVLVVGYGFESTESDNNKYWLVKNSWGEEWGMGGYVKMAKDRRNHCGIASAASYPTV

Substance	Km [1] [mM]	Vmax [1] [µmol/min]	kcat [1] [s⁻¹]	Km [2] [mM]	Vmax [2] [µmol/min]	kcat/Km [2] [M⁻¹ s⁻¹]	Km [3] [mM]	Vmax [3] [µmol/min]	kcat [3] [s⁻¹]	Km [4] [mM]	Vmax [4] [µmol/min]	kcat [4] [s⁻¹]	kcat/Km [4] [M⁻¹ s⁻¹]
Cath B (Homo sapiens)	0.88	0.156	0.25	0.12	0.006	250	–	–	–	–	–	–	–
Cath L (Homo sapiens)	–	–	–	–	–	–	7.1	0.582	3.01	8.3	0.27	1.26	152

Source: US8771644B2, “Imaging probes” (Sanofi, priority 2007, dated 2014)
